Test results published in PMC3982596.

Biological target: YFP-LacI-HP1α (human) (UniProt P45973)
Sequence of UniProt P45973 (P45973 whole entry): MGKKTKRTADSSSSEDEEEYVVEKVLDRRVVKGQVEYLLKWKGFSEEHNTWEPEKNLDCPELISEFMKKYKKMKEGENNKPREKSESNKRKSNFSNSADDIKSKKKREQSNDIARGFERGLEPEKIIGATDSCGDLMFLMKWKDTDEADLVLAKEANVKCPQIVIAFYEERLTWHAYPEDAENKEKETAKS

CFP-NDR1 (from UniProt Q15208 1-465) (enzyme)
percent of cells with the binder at the tethered locus (% of the cells): 18
